Measurements taken from the supplement of paper PMC9112550, “Optimization of the antimicrobial peptide Bac7 by deep mutational scanning” (BMC Biology, 2022).

Test system: Escherichia coli TOP10
Assay: shrunken log2 fold change of peptide-encoding DNA abundance (4.5 h post-induction vs induction); higher = less antimicrobial activity (less host growth inhibition)
Conditions: time post-induction: 4.5 h; library: site-saturation at positions 5, 18, 19, 20
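Further: peptides expressed intracellularly from a pBAD plasmid library in pooled LB shake-flask culture, induced with 0.3% L-arabinose, DNA abundance read by NGS, three biological replicates, DESeq2 with apeglm shrinkage.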

Row | Sequence | shrunken log2 fold change
1 | RRIRKRPPRLPRPRPRPEVSPRP | 0.219
2 | RRIRYRPPRLPRPRPRPIWIPRP | -0.0319
3 | RRIRQRPPRLPRPRPRPGWYPRP | 0.126
4 | RRIRDRPPRLPRPRPRPFSGPRP | -0.214
5 | RRIRERPPRLPRPRPRPRPHPRP | 0.791
6 | RRIRKRPPRLPRPRPRPGNWPRP | 0.701
7 | RRIRMRPPRLPRPRPRPTFQPRP | 0.428
8 | RRIRKRPPRLPRPRPRPATTPRP | 0.407
9 | RRIRHRPPRLPRPRPRPFGGPRP | -0.0398
10 | RRIRNRPPRLPRPRPRPWRIPRP | 0.0411
11 | RRIRQRPPRLPRPRPRPRFHPRP | -0.177
12 | RRIRTRPPRLPRPRPRPVSFPRP | -0.114
13 | RRIRNRPPRLPRPRPRPNLGPRP | -0.00992
14 | RRIRWRPPRLPRPRPRPMRIPRP | 0.222
15 | RRIRKRPPRLPRPRPRPVDAPRP | 0.493
16 | RRIRMRPPRLPRPRPRPALMPRP | 0.114
17 | RRIRLRPPRLPRPRPRPLDDPRP | -0.144
18 | RRIRVRPPRLPRPRPRPEYHPRP | -0.287
19 | RRIRPRPPRLPRPRPRPHPWPRP | 0.0817
20 | RRIRKRPPRLPRPRPRPDYDPRP | 0.143

Row | Sequence | shrunken log2 fold change
21 | RRIRKRPPRLPRPRPRPCLVPRP | 0.123
22 | RRIRWRPPRLPRPRPRPTQHPRP | 0.333
23 | RRIRPRPPRLPRPRPRPHLAPRP | 0.0568
24 | RRIRDRPPRLPRPRPRPDMLPRP | 0.00888
25 | RRIRYRPPRLPRPRPRPKELPRP | -0.0199
26 | RRIRTRPPRLPRPRPRPGEHPRP | -0.187
27 | RRIRCRPPRLPRPRPRPANYPRP | -0.342
28 | RRIRFRPPRLPRPRPRPKGIPRP | -0.0392
29 | RRIRIRPPRLPRPRPRPAFWPRP | 0.15
30 | RRIRARPPRLPRPRPRPQGDPRP | 0.207
31 | RRIRTRPPRLPRPRPRPKASPRP | -0.0647
32 | RRIRDRPPRLPRPRPRPGKCPRP | -0.105
33 | RRIRIRPPRLPRPRPRPWIVPRP | -0.157
34 | RRIRERPPRLPRPRPRPGAQPRP | -0.23
35 | RRIRSRPPRLPRPRPRPKDMPRP | -0.123
36 | RRIRFRPPRLPRPRPRPVFNPRP | -0.461
37 | RRIRIRPPRLPRPRPRPQCGPRP | 0.0719
38 | RRIRPRPPRLPRPRPRPNKWPRP | -0.232
39 | RRIRYRPPRLPRPRPRPPPWPRP | 0.358
40 | RRIRGRPPRLPRPRPRPAPSPRP | 0.806

Row | Sequence | shrunken log2 fold change
41 | RRIRERPPRLPRPRPRPDVWPRP | 0.0561
42 | RRIRHRPPRLPRPRPRPKMSPRP | 0.166
43 | RRIRPRPPRLPRPRPRPLVPPRP | 0.125
44 | RRIRIRPPRLPRPRPRPQFAPRP | -0.0319
45 | RRIRPRPPRLPRPRPRPKRYPRP | 0.281
46 | RRIRARPPRLPRPRPRPVYQPRP | -0.068
47 | RRIRRRPPRLPRPRPRPTCAPRP | 0.502
48 | RRIRKRPPRLPRPRPRPNGIPRP | -0.029
49 | RRIRGRPPRLPRPRPRPQPEPRP | 0.704
50 | RRIRLRPPRLPRPRPRPRQKPRP | 0.154
51 | RRIRWRPPRLPRPRPRPQNWPRP | 0.215
52 | RRIRFRPPRLPRPRPRPYLKPRP | -1.36
53 | RRIRCRPPRLPRPRPRPWCFPRP | -0.712
54 | RRIRKRPPRLPRPRPRPCNFPRP | -0.132
55 | RRIRFRPPRLPRPRPRPMYDPRP | -0.244
56 | RRIRHRPPRLPRPRPRPFLDPRP | -0.751
57 | RRIRHRPPRLPRPRPRPVQFPRP | -0.335
58 | RRIRKRPPRLPRPRPRPMVNPRP | 1.55
59 | RRIRLRPPRLPRPRPRPRAYPRP | 0.0155
60 | RRIRVRPPRLPRPRPRPYTRPRP | -0.0163
